Reference: patent publication US10064928B2, “Peptides and combination of peptides for use in immunotherapy against CLL and other cancers” (IMMATICS BIOTECHNOLOGIES GMBH, priority 2015, dated 2018)

What follows are substances tested against HLA-A*02:01 (Homo sapiens, UniProt P04439, D140Y/D185E/D98H/E176V/E277Q/G131W/G231S/I119V/I121R/I166T/I218V/L300P/L318F/N151K/N90K/P208A/P217A/Q86G/Q94H/R138H/R169H/T345S) (assay: MHC binding assay (UV-ligand exchange, beta2m ELISA)). Details: binding of HLA-class I restricted peptides to HLA-A*02:01, β2m ELISA.
How it was run: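 Binding capacity is expressed as the yield of UV-mediated ligand exchange, reflecting how well each peptide stabilizes peptide-receptive MHC. Stabilized complexes are read out by anti-β2m HRP ELISA (450 nm) after streptavidin capture, with refolded MLA-001 monomer standards for quantitation.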

Substance	Peptide Exchange (MHC class I binding score, peptide exchange yield)
140 (QIAELPATSV; listed as Homo sapiens) [compound 140]	“+++” (≥50 = +++)
141 (QILSEIVEA; listed as Homo sapiens) [compound 141]	“++” (≥20% = ++)
142 (QLDEPAPQV; listed as Homo sapiens) [compound 142]	“++” (≥20% = ++)
143 (QLLDTYFTL; listed as Homo sapiens) [compound 143]	“+++” (≥50 = +++)
145 (SALDTITTV; listed as Homo sapiens) [compound 145]	“+++” (≥50 = +++)
146 (SIIEGPIIKL; listed as Homo sapiens) [compound 146]	“+++” (≥50 = +++)
147 (SILETVATL; listed as Homo sapiens) [compound 147]	“+++” (≥50 = +++)
148 (SIVASLITV; listed as Homo sapiens) [compound 148]	“+++” (≥50 = +++)
149 (SLDNGGYYI; listed as Homo sapiens) [compound 149]	“+++” (≥50 = +++)
150 (SLFDQPLSII; listed as Homo sapiens) [compound 150]	“+++” (≥50 = +++)
151 (SLFDSAYGA; listed as Homo sapiens) [compound 151]	“+++” (≥50 = +++)
152 (SLIRILQTI; listed as Homo sapiens) [compound 152]	“+++” (≥50 = +++)
153 (SLLAELHVL; listed as Homo sapiens) [compound 153]	“+++” (≥50 = +++)
155 (SLMLEVPAL; listed as Homo sapiens) [compound 155]	“+++” (≥50 = +++)
156 (SLNIGDVQL; listed as Homo sapiens) [compound 156]	“+++” (≥50 = +++)
157 (SLNIRDFTM; listed as Homo sapiens) [compound 157]	“+++” (≥50 = +++)
158 (SLPEAPLDV; listed as Homo sapiens) [compound 158]	“+++” (≥50 = +++)
159 (SLQEEKLIYV; listed as Homo sapiens) [compound 159]	“+++” (≥50 = +++)
160 (SLSFLVPSL; listed as Homo sapiens) [compound 160]	“+++” (≥50 = +++)
161 (SMDDGMINV; listed as Homo sapiens) [compound 161]	“+++” (≥50 = +++)
162 (SMKDDLENV; listed as Homo sapiens) [compound 162]	“++” (≥20% = ++)
163 (SQLDISEPYKV; listed as Homo sapiens) [compound 163]	“+++” (≥50 = +++)
164 (SVHKGFAFV; listed as Homo sapiens) [compound 164]	“+++” (≥50 = +++)

Substance	Peptide Exchange (MHC class I binding score, peptide exchange yield)
165 (TLDDDLDTV; listed as Homo sapiens) [compound 165]	“++” (≥20% = ++)
166 (TLDPNQVSL; listed as Homo sapiens) [compound 166]	“++” (≥20% = ++)
167 (TLDTSKLYV; listed as Homo sapiens) [compound 167]	“+++” (≥50 = +++)
168 (YLLDQSFVM; listed as Homo sapiens) [compound 168]	“++++” (≥75% = ++++)
169 (TLLLGLTEV; listed as Homo sapiens) [compound 169]	“+++” (≥50 = +++)
170 (TLTFRVETV; listed as Homo sapiens) [compound 170]	“+++” (≥50 = +++)
171 (TLVPPAALISI; listed as Homo sapiens) [compound 171]	“+++” (≥50 = +++)
172 (TLYDMLASI; listed as Homo sapiens) [compound 172]	“+++” (≥50 = +++)
173 (TVIENIHTI; listed as Homo sapiens) [compound 173]	“++” (≥20% = ++)
174 (VLAELPIIVV; listed as Homo sapiens) [compound 174]	“+++” (≥50 = +++)
175 (FTVPRVVAV; listed as Homo sapiens) [compound 175]	“+++” (≥50 = +++)
176 (VLAEQNIIPSA; listed as Homo sapiens) [compound 176]	“+++” (≥50 = +++)
177 (VLDDRELLL; listed as Homo sapiens) [compound 177]	“+++” (≥50 = +++)
178 (VLFFNVQEV; listed as Homo sapiens) [compound 178]	“+++” (≥50 = +++)
179 (VLLGLEMTL; listed as Homo sapiens) [compound 179]	“+++” (≥50 = +++)
180 (LLKDGPEIGL; listed as Homo sapiens) [compound 180]	“++” (≥20% = ++)
181 (VLLSIPFVSV; listed as Homo sapiens) [compound 181]	“+++” (≥50 = +++)
182 (VLLSVPGPPV; listed as Homo sapiens) [compound 182]	“+++” (≥50 = +++)
183 (VLMPTVYQQGV; listed as Homo sapiens) [compound 183]	“+++” (≥50 = +++)
184 (VLSHNLYTV; listed as Homo sapiens) [compound 184]	“+++” (≥50 = +++)
185 (VMDDQRDLI; listed as Homo sapiens) [compound 185]	“++” (≥20% = ++)
186 (VMDPTKILI; listed as Homo sapiens) [compound 186]	“++++” (≥75% = ++++)
187 (VMDTHLVNI; listed as Homo sapiens) [compound 187]	“++++” (≥75% = ++++)

Substance	Peptide Exchange (MHC class I binding score, peptide exchange yield)
188 (VMGDIPAAV; listed as Homo sapiens) [compound 188]	“++” (≥20% = ++)
189 (VMLEMTPEL; listed as Homo sapiens) [compound 189]	“+++” (≥50 = +++)
190 (VVMGTVPRL; listed as Homo sapiens) [compound 190]	“+++” (≥50 = +++)
191 (YIFDGSDGGV; listed as Homo sapiens) [compound 191]	“+++” (≥50 = +++)
193 (YLDLSNNRL; listed as Homo sapiens) [compound 193]	“+++” (≥50 = +++)
194 (YLDNVLAEL; listed as Homo sapiens) [compound 194]	“++++” (≥75% = ++++)
195 (YLGGFALSV; listed as Homo sapiens) [compound 195]	“++++” (≥75% = ++++)
196 (YLLLQTYVL; listed as Homo sapiens) [compound 196]	“+” (≥10% = +)
198 (YLTFLPAEV; listed as Homo sapiens) [compound 198]	“+++” (≥50 = +++)
199 (YLVELSSLL; listed as Homo sapiens) [compound 199]	“++++” (≥75% = ++++)
203 (ALLSSQLAL; listed as Homo sapiens) [compound 203]	“+++” (≥50 = +++)
204 (GLLQINDKIAL; listed as Homo sapiens) [compound 204]	“+++” (≥50 = +++)
205 (GLSQANFTL; listed as Homo sapiens) [compound 205]	“+++” (≥50 = +++)
206 (HMQDVRVLL; listed as Homo sapiens) [compound 206]	“+++” (≥50 = +++)
207 (IIADLDTTIMFA; listed as Homo sapiens) [compound 207]	“+++” (≥50 = +++)
208 (ILLKTEGINL; listed as Homo sapiens) [compound 208]	“+++” (≥50 = +++)
209 (ILQAELPSL; listed as Homo sapiens) [compound 209]	“+++” (≥50 = +++)
210 (KLLVQDFFL; listed as Homo sapiens) [compound 210]	“+++” (≥50 = +++)
211 (LIDVKPLGV; listed as Homo sapiens) [compound 211]	“+++” (≥50 = +++)
214 (RLQELTEKL; listed as Homo sapiens) [compound 214]	“+++” (≥50 = +++)
215 (VMQDIVYKL; listed as Homo sapiens) [compound 215]	“+++” (≥50 = +++)
